According to publication PMC3981819, “Signaling Properties and Pharmacological Analysis of Two Sulfakinin Receptors from the Red Flour Beetle, Tribolium castaneum” (PLoS ONE, 2014):
Blank lines part the entries; values can stand above or below the molecule they belong to. Square brackets hold non-standard residues; d marks the D form. Ends that are not written are not given here. * marks the point of attachment. SO3H = sulfate on Tyr (sulfated tyrosine), O=S(=O)(O)*; sY = N[C@@H](Cc1ccc(OS(=O)(=O)O)cc1)C(=O)O; pGlu = O=C1CC[C@@H](C(=O)O)N1

How the values were obtained:
[1] = tested on: HEK293T cells transfected with empty pcDNA3.1/V5-His-TOPO TA expression vector; assay: CRE-luciferase reporter-gene assay, HEK293T cells transfected with empty expression vector; format: cell-based; conditions: CRE-luciferase bioluminescence
Method: (§1) General pharmacological studies were performed in Chinese Hamster Ovary (CHO) WTA11 cells, stably coexpressing apoaequorin, a zeocin resistance gene and the promiscuous Gα16, which couples most agonist-induced GPCRs to the phospholipase C and Ca^2+ pathway irrespective of their natural signaling cascade. CHO-PAM28 cells stably expressing apoaequorin and a puromycin resistance gene but not Gα16 and HEK293T cells (Invitrogen) were used to determine possible effects on Ca^2+ and/or cAMP second messenger systems, respectively. […]
(§2) Cells were cultured in vitro as a monolayer at 37°C with a constant supply of 5% CO2 and were subcultivated twice a week. […] HEK 293T cells were cotransfected with a receptor construct (6 μg) and CRE-luciferase reporter construct (3 μg), consisting of the open reading frame of the luciferase gene, downstream of a multimerized cAMP-response-element (CRE) and promoter. […] Cells were again incubated overnight for a final growth phase before luminescence screens were performed.
(§3) The luciferase reporter-gene assay was used to quantify positive or negative coupling of the receptor to cAMP in HEK293T cells. Cotransfected HEK293T cells were detached and the viable cells were quantified using the NucleoCounter NC-100 (Chemometic) as described for CHO cells. […] Data were analyzed as described for CHO cells.

[2] = tested on: Trica-SKR1; assay: CRE-luciferase reporter-gene assay (cAMP), HEK293T cells transfected with Trica-SKR1; format: cell-based, Tribolium castaneum; conditions: HEK293T cells cotransfected with CRE-luciferase; 200 μM IBMX; 3–4 h at 37°C; six independent measurements in duplicate; read-out: EC50, luciferase bioluminescence (cAMP), Trica-SKR1
Method: as §1, §2, §3

[3] = tested on: CHO-PAM28 cells transfected with empty pcDNA3.1/V5-His-TOPO TA expression vector; assay: Aequorin-luminescence assay, CHO-PAM28 cells transfected with empty expression vector; format: cell-based, Chinese Hamster; conditions: aequorin bioluminescence
Method: as §1, §2
(§4) The aequorin luminescence assay was used to measure Ca^2+ signaling in CHO cell lines. […] The viable cells were quantified using a NucleoCounter NC-100 (Chemometic). […] Incubated cells were added to the wells of the 96-well plate and light emission was measured for 30 s using a Mithras LB940 (Berthold Technologies). […]

[4] = tested on: Trica-SKR2; assay: Aequorin-luminescence assay, CHO-WTA11 cells (Gα16) transfected with Trica-SKR2; format: cell-based, Tribolium castaneum; conditions: aequorin bioluminescence
Method: (§5) General pharmacological studies were performed in Chinese Hamster Ovary (CHO) WTA11 cells, stably coexpressing apoaequorin, a zeocin resistance gene and the promiscuous Gα16, which couples most agonist-induced GPCRs to the phospholipase C and Ca^2+ pathway irrespective of their natural signaling cascade. CHO-PAM28 cells stably expressing apoaequorin and a puromycin resistance gene but not Gα16 and HEK293T cells (Invitrogen) were used to determine possible effects on Ca^2+ and/or cAMP second messenger systems, respectively. All cell lines were cultured in Dulbecco’s Modified Eagles Medium nutrient mixture F12-Ham (DMEM/F12; Invitrogen) supplemented with 1% penicillin/streptomycin (10000 units/ml penicillin and 10 mg/ml streptomycin in 0.9% NaCl; Invitrogen) to prevent bacterial contamination of gram-positive and gram-negative bacteria. In CHO-WTA11 culture medium 250 μg/ml zeocin (Invitrogen) was added as a selection marker, while CHO-PAM28 culture medium was supplemented with 5 μg/ml puromycin to select cells stably expressing apoaequorin. All cell culture media were supplemented with 10% fetal bovine serum (inactivated at […]; Sigma-Aldrich).
(§6) Cells were cultured in vitro as a monolayer at 37°C with a constant supply of 5% CO2 and were subcultivated twice a week. Transfections of cells were performed in T75 flasks at 60–80% confluency. Transfection reagent for CHO cells was prepared by combining 3.75 ml Opti-MEM I (Invitrogen), 7.5 μg plasmid DNA and 18.75 μl of Plus Reagent (Invitrogen). After gently mixing and 5 min incubation at room temperature 45 μl of Lipofectamine LTX was added to the mixture. This transfection medium was incubated for 30 min at room temperature and added dropwise to the cells, supplemented with 3 ml of fresh culture medium. HEK 293T cells were cotransfected with a receptor construct (6 μg) and CRE-luciferase reporter construct (3 μg), consisting of the open reading frame of the luciferase gene, downstream of a multimerized cAMP-response-element (CRE) and promoter. After transfection, cells were grown overnight before an additional 20 ml of culture medium was supplemented. Cells were again incubated overnight for a final growth phase before luminescence screens were performed.
(§7) The aequorin luminescence assay was used to measure Ca^2+ signaling in CHO cell lines. Cells were detached using phosphate buffered saline (PBS) containing 0.2% EDTA and collected in 10 ml of DMEM/F-12 (without phenol red, with L-glutamine and 10 mM HEPES; Gibco). The viable cells were quantified using a NucleoCounter NC-100 (Chemometic). Cells were pelleted by 4 min centrifugation at 800 rpm at room temperature and resuspended in DMEM/BSA (DMEM/F-12 without phenol red, with L-glutamine and 10 mM HEPES, 0.1% bovine serum albumin) at a concentration of 5×10^6 cells/ml. Cells were then shielded from light and Coelenterazine H (Invitrogen) was added at a final concentration of 5 μM. Cells were gently shaken at room temperature for 4 h under dark conditions, allowing the aequorin holoenzyme to be reconstituted. After a 10-fold dilution in DMEM/BSA, cells were incubated another 30 min under the same conditions. Pharmacological ligands were dissolved in DMEM/BSA and 50 μl of ligand was added to wells of a 96-well plate. Wells containing 50 μl of DMEM/BSA were used as a negative control, while wells containing 1 μM of ATP served as positive control. Incubated cells were added to the wells of the 96-well plate and light emission was measured for 30 s using a Mithras LB940 (Berthold Technologies). After 30 s Triton X-100 (0.2% in DMEM/BSA) was added, lysing the cells and thus serving as an internal reference. Light emission was measured for an additional 8 s after Triton X-100 was introduced in the wells. Light emission from each well was calculated relative to the total response (ligand+Triton X-100) using the output file of Mikrowin2000 software (Mikrotek). Further analysis was done in Graphpad Prism 5.

[5] = tested on: Trica-SKR2; assay: Aequorin-luminescence assay, CHO-PAM28 cells (no Gα16) transfected with Trica-SKR2; format: cell-based, Tribolium castaneum; conditions: CHO-PAM28 cells without Gα16; aequorin bioluminescence (Ca2+); three independent measurements in duplicate; read-out: EC50 for receptor activation in CHO-PAM28 cells, Trica-SKR2
Method: as §1, §2, §4

[6] = tested on: Trica-SKR1; assay: Aequorin-luminescence assay, CHO-WTA11 cells (Gα16) transfected with Trica-SKR1; format: cell-based, Tribolium castaneum; conditions: aequorin bioluminescence
Method: as §5, §6, §7

[7] = tested on: Trica-SKR2; assay: CRE-luciferase reporter-gene assay (cAMP), HEK293T cells transfected with Trica-SKR2; format: cell-based, Tribolium castaneum; conditions: HEK293T cells cotransfected with CRE-luciferase; 200 μM IBMX; 3–4 h at 37°C; three independent measurements in duplicate; read-out: EC50, luciferase bioluminescence (cAMP), Trica-SKR2
Method: as §1, §2, §3

[8] = tested on: Trica-SKR1; assay: Aequorin-luminescence assay, CHO-PAM28 cells (no Gα16) transfected with Trica-SKR1; format: cell-based, Tribolium castaneum; conditions: CHO-PAM28 cells without Gα16; aequorin bioluminescence (Ca2+); three independent measurements in duplicate; read-out: EC50 for receptor activation in CHO-PAM28 cells, Trica-SKR1
Method: as §1, §2, §4

[9] = molecular target: Tribolium castaneum sulfakinin receptor 1 (T. castaneum)
[10] = molecular target: Tribolium castaneum sulfakinin receptor 2 (T. castaneum)
[11] = molecular target: Tribolium castaneum sulfakinin receptor 1 (T. castaneum); remark: listed apart in the source
[12] = molecular target: Tribolium castaneum sulfakinin receptor 2 (T. castaneum); remark: listed apart in the source
[13] = molecular target: Tribolium castaneum sulfakinin receptor 1 (T. castaneum); remark: listed apart in the source
[14] = molecular target: Tribolium castaneum sulfakinin receptor 2 (T. castaneum); remark: listed apart in the source
[15] = molecular target: Tribolium castaneum sulfakinin receptor 1 (T. castaneum); remark: listed apart in the source
[16] = molecular target: Tribolium castaneum sulfakinin receptor 2 (T. castaneum); remark: listed apart in the source
[17] = peptide at 1 μM, relative to sTrica-SK(5–13) at 1 μM = 100%, at least three biological repeats, each in duplicate

Molecule: FDDY(SO3H)GHMRFa [sTrica-SK(5–13), sulfated C-terminal fragment of T. castaneum SK comprising amino acids 5–13, reference compound]
signal in empty-vector transfected HEK293T cells [1]: no signal was observed | EC50 [2]: 4.9 ± 4.2 pM | signal in empty-vector transfected CHO-PAM28 cells [3]: no signal was observed | concentration at which maximal response was attained, Trica-SKR2 [4]: 100 nM | EC50 ([4]; 1 fM to 1 μM, three independent measurements in duplicate): 524 ± 200 pM | % Trica-SKR2 (relative activation) [4, 17]: 100.0% | EC50 [5]: 1610 ± 450 pM | concentration at which maximal response was attained, Trica-SKR1 [6]: 100 nM | EC50 ([6]; 1 fM to 1 μM, ± 95% confidence interval, three independent measurements in duplicate): 99.5 ± 28 pM | % Trica-SKR1 (relative activation) [6, 17]: 100.0% | EC50 [7]: 1400 ± 300 pM | EC50 [8]: 58.5 ± 24 pM

B1: sulfated C-terminal fragment of T. castaneum SK comprising amino acids 5–13 (peptide)
peptide: FDDY(SO3H)GHMRF-NH2
modifications: N-terminus assumed
SMILES: CSCC[C@H](NC(=O)[C@H](Cc1c[nH]cn1)NC(=O)CNC(=O)[C@H](Cc1ccc(OS(=O)(=O)O)cc1)NC(=O)[C@H](CC(=O)O)NC(=O)[C@H](CC(=O)O)NC(=O)[C@@H](N)Cc1ccccc1)C(=O)N[C@@H](CCCNC(=N)N)C(=O)N[C@@H](Cc1ccccc1)C(N)=O
aequorin bioluminescence in CHO-WTA11 cells transfected with the receptor, peptide at 1 μM, % of the response to 1 μM sTrica-SK(5–13) (this peptide is the 100% reference) [9]: 100% | aequorin bioluminescence in CHO-WTA11 cells transfected with the receptor, peptide at 1 μM, % of the response to 1 μM sTrica-SK(5–13) (this peptide is the 100% reference) [10]: 100% | EC50 of aequorin bioluminescence (Ca2+) in CHO-PAM28 cells (no Gα16) transfected with the receptor [11]: 58.5 pM | EC50 of aequorin bioluminescence (Ca2+) in CHO-PAM28 cells (no Gα16) transfected with the receptor [12]: 1610 pM | EC50 of aequorin bioluminescence (Ca2+) in CHO-WTA11 cells (Gα16) transfected with the receptor, peptide 1 fM to 1 μM [13]: 99.5 pM | EC50 of aequorin bioluminescence (Ca2+) in CHO-WTA11 cells (Gα16) transfected with the receptor, peptide 1 fM to 1 μM [14]: 524 pM | EC50 of CRE-luciferase bioluminescence (cAMP) in HEK293T cells cotransfected with the receptor [15]: 4.9 pM | EC50 of CRE-luciferase bioluminescence (cAMP) in HEK293T cells cotransfected with the receptor [16]: 1400 pM

B3: sulfated SK from the migratory locust, Locusta migratoria (peptide)
peptide: [pGlu]LASDDY(SO3H)GHMRF-NH2
SMILES: CSCC[C@H](NC(=O)[C@H](Cc1c[nH]cn1)NC(=O)CNC(=O)[C@H](Cc1ccc(OS(=O)(=O)O)cc1)NC(=O)[C@H](CC(=O)O)NC(=O)[C@H](CC(=O)O)NC(=O)[C@H](CO)NC(=O)[C@H](C)NC(=O)[C@H](CC(C)C)NC(=O)[C@@H]1CCC(=O)N1)C(=O)N[C@@H](CCCNC(=N)N)C(=O)N[C@@H](Cc1ccccc1)C(N)=O
aequorin bioluminescence in CHO-WTA11 cells transfected with the receptor, peptide at 1 μM, % of the response to 1 μM sTrica-SK(5–13) [9]: 75% | aequorin bioluminescence in CHO-WTA11 cells transfected with the receptor, peptide at 1 μM, % of the response to 1 μM sTrica-SK(5–13) [10]: 79.9% | EC50 of aequorin bioluminescence (Ca2+) in CHO-WTA11 cells (Gα16) transfected with the receptor, peptide 1 fM to 1 μM [13]: 16800 pM | EC50 of aequorin bioluminescence (Ca2+) in CHO-WTA11 cells (Gα16) transfected with the receptor, peptide 1 fM to 1 μM [14]: 776000 pM

Second part, the molecule after the results:

aequorin bioluminescence in CHO-WTA11 cells transfected with the receptor, peptide at 1 μM, % of the response to 1 μM sTrica-SK(5–13) [9]: 16.5% | aequorin bioluminescence in CHO-WTA11 cells transfected with the receptor, peptide at 1 μM, % of the response to 1 μM sTrica-SK(5–13) [10]: 16.6%
B2: 1679[φ1]wp-4 (peptide)
peptide: [pGlu]PS[sY]DRDIMSF-NH2
SMILES: CC[C@H](C)[C@H](NC(=O)[C@H](CC(=O)O)NC(=O)[C@H](CCCNC(=N)N)NC(=O)[C@H](CC(=O)O)NC(=O)[C@H](Cc1ccc(OS(=O)(=O)O)cc1)NC(=O)[C@H](CO)NC(=O)[C@@H]1CCCN1C(=O)[C@@H]1CCC(=O)N1)C(=O)N[C@@H](CCSC)C(=O)N[C@@H](CO)C(=O)N[C@@H](Cc1ccccc1)C(N)=O

aequorin bioluminescence in CHO-WTA11 cells transfected with the receptor, peptide at 1 μM, % of the response to 1 μM sTrica-SK(5–13) [9]: 58.2% | aequorin bioluminescence in CHO-WTA11 cells transfected with the receptor, peptide at 1 μM, % of the response to 1 μM sTrica-SK(5–13) [10]: 41.4%
B4: 1835[φ2]wp-4 (peptide)
peptide: SDD[sY]GHMRF-NH2
modifications: N-terminus assumed
SMILES: CSCC[C@H](NC(=O)[C@H](Cc1c[nH]cn1)NC(=O)CNC(=O)[C@H](Cc1ccc(OS(=O)(=O)O)cc1)NC(=O)[C@H](CC(=O)O)NC(=O)[C@H](CC(=O)O)NC(=O)[C@@H](N)CO)C(=O)N[C@@H](CCCNC(=N)N)C(=O)N[C@@H](Cc1ccccc1)C(N)=O
